This assay deals with recombinant T2 domain of xNAP1 (Xenopus nucleosome assembly protein), residues 38-282, histidine tagged (Xenopus laevis). Briefly: AUC.

This is an account of results in publication PMC1635243.

By stoichiometry N is commonly meant the number of molecules, sites or subunits per partner or assembly.

For the substance “recombinant T2 domain of xNAP1 (Xenopus nucleosome assembly protein), residues 38-282, histidine tagged (domain or fragment)”, the stoichiometry N fell in the range of 12 to 16 subunits.
